Values quoted from earlier work, collected in paper PMC1087504.
pKd: −log10 of the molar value.

Target: 3 beta-hydroxysteroid dehydrogenase (Bos taurus) (UniProt P14893)
Chain of UniProt P14893 (P14893 whole entry): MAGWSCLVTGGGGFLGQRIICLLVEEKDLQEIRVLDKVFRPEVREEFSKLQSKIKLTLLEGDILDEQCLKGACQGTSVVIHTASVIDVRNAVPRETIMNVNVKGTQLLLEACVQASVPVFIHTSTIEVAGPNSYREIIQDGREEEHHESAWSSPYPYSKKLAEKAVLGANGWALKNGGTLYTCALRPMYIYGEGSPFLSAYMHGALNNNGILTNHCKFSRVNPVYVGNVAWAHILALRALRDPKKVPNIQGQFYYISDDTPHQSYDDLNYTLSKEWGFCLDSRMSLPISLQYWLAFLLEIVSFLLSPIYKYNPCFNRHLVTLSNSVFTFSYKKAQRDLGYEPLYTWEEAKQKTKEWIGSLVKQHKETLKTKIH

pKd: 6.92
Substance: P450scc (from UniProt P00189)
